Here are results for three molecules from patent US10450368 (DUKE UNIVERSITY, dated 2019).

Assay [1] concerns the target T1, RNP (ribonucleoprotein).
T1 construct: Protein-RNA complex
In words: AtheNA, Ab 25 ug/ml.

Assay [2] concerns the target T2, Histones.
T2 construct: Mixture of proteins
Put plainly: AtheNA, Ab 25 ug/ml.

Assay [3] has as its target T3, SSA.
T3 construct: also called SSA (Ro)
In words: AtheNA, Ab 25 ug/ml.

The target of assay [4] is T4, Sm (Smith antigen).
T4 construct: Protein complex
Put plainly: AtheNA, Ab 25 ug/ml.

The target in assay [5] is T5, SSB (UniProt P05455 1-408).
T5 sequence: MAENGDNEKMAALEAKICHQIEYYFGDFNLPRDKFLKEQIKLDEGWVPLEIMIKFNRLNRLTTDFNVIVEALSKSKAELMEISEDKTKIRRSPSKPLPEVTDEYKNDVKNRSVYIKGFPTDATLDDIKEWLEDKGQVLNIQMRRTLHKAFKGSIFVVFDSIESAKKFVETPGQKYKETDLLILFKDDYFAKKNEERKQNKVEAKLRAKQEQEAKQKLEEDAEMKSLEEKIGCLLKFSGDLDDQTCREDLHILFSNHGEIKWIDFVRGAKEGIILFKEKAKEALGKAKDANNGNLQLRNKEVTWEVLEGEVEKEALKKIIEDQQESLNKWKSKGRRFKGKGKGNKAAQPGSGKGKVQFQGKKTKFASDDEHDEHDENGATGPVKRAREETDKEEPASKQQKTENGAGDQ
Put plainly: AtheNA, Ab 25 ug/ml.

The target of assay [6] is T6, Jo-1 (UniProt P12081 1-509).
T6 sequence: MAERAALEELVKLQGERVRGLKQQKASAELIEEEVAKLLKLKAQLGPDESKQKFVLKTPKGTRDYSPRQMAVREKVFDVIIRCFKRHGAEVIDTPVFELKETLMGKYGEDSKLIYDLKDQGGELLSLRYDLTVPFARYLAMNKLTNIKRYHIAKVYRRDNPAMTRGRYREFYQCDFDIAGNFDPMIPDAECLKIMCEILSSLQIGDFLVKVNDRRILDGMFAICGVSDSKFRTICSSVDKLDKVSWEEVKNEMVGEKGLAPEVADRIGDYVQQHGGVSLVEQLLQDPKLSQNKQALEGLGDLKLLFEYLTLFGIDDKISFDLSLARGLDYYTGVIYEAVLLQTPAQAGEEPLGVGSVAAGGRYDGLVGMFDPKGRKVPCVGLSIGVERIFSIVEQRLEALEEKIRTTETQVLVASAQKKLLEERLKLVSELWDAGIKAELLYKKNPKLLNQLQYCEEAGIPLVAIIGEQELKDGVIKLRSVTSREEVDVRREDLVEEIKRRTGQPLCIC
Put plainly: AtheNA, Ab 25 ug/ml.

Assay [7] has as its target T7, Scl-70 (UniProt P11387 1-765).
T7 sequence: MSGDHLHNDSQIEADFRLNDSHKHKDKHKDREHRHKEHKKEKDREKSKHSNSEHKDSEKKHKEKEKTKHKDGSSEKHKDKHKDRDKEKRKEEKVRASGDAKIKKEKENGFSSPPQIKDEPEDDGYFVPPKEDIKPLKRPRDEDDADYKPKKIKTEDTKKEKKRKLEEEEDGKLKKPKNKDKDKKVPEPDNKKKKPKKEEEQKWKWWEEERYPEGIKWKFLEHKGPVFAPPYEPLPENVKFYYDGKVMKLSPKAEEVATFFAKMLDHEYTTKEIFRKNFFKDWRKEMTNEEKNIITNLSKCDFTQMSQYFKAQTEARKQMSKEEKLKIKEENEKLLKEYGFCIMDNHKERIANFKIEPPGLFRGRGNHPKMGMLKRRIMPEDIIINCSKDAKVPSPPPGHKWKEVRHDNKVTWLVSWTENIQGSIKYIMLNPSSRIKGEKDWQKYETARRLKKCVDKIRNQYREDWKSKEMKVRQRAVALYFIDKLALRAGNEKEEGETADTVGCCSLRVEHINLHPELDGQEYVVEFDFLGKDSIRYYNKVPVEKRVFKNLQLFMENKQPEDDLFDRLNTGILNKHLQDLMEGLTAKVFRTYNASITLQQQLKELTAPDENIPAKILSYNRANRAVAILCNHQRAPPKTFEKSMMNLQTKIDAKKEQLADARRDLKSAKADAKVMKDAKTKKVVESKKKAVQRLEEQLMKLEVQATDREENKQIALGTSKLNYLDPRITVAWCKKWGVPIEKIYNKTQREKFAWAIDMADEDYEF
Put plainly: AtheNA, Ab 25 ug/ml.

The target of assay [8] is T1, RNP (ribonucleoprotein). In words: AtheNA, Ab 12.5 ug/ml.
Assay [9] concerns the target T2, Histones. Put plainly: AtheNA, Ab 12.5 ug/ml.
The target in assay [10] is T3, SSA. Put plainly: AtheNA, Ab 12.5 ug/ml.
Assay [11] addresses T4, Sm (Smith antigen). Put plainly: AtheNA, Ab 12.5 ug/ml.
Assay [12] addresses T5, SSB. Put plainly: AtheNA, Ab 12.5 ug/ml.
Assay [13] deals with T6, Jo-1. Put plainly: AtheNA, Ab 12.5 ug/ml.
The target in assay [14] is T7, Scl-70. In words: AtheNA, Ab 12.5 ug/ml.
Assay [15] has as its target T1, RNP (ribonucleoprotein). In words: AtheNA, Ab 6.25 ug/ml.
For assay [16], the target named is T2, Histones. Put plainly: AtheNA, Ab 6.25 ug/ml.
Assay [17] deals with T3, SSA. In words: AtheNA, Ab 6.25 ug/ml.
Assay [18] addresses T4, Sm (Smith antigen). Put plainly: AtheNA, Ab 6.25 ug/ml.
Assay [19] has as its target T5, SSB. In words: AtheNA, Ab 6.25 ug/ml.
For assay [20], the target named is T6, Jo-1. In words: AtheNA, Ab 6.25 ug/ml.
Assay [21] addresses T7, Scl-70. In words: AtheNA, Ab 6.25 ug/ml.
The target of assay [22] is T5, SSB. Put plainly: AtheNA, Ab 25 ug/ml. This is another data set of the same source.
The target in assay [23] is T7, Scl-70. In words: AtheNA, Ab 25 ug/ml. This is another data set of the same source.

B1: CH241 (antibody, V domains shown)
VH: QVQLVQSGAAVKKPGASVRVSCKASGYTFTSSHIHWVRQAPGQGPEWMGMIDPSVGRPTTAGKFQGRVTMTRDRYTSTAYMDLSSLRSEDTAVYYCARSVETTGSLLYFDYWGQGTLITVSS
VL: EIVLTQSPATLSVSPGERATLSCRASQSVRSNIAWYQQKPGQAPRLLIHGASTRATGIPGRFSGSGSGPEFTLAISSVQSEDFAVYYCQQYNDWWTFGQGTKVEIK
With B1, the AtheNA signal with RNP (ribonucleoprotein) [1] is 6 relative luminescence units; with Histones [2], 20 relative luminescence units; in the assay with SSA [3], 15 relative luminescence units; with Sm (Smith antigen) [4], 11 relative luminescence units; with SSB [5], 6 relative luminescence units; with Jo-1 [6], 5 relative luminescence units. In addition, the AtheNA signal with Scl-70 [7] was 4 relative luminescence units; in the assay with RNP (ribonucleoprotein) [8], 5 relative luminescence units; with Histones [9], 13 relative luminescence units; in the assay with SSA [10], 14 relative luminescence units; with Sm (Smith antigen) [11] it was 7 relative luminescence units; with SSB [12] it was 8 relative luminescence units. Besides, the AtheNA signal in the assay with Jo-1 [13] is 6 relative luminescence units; with Scl-70 [14] it was 3 relative luminescence units; in the assay with RNP (ribonucleoprotein) [15], 3 relative luminescence units; in the assay with Histones [16], 9 relative luminescence units; with SSA [17] it was 15 relative luminescence units; in the assay with Sm (Smith antigen) [18], 4 relative luminescence units. Besides, the AtheNA signal with SSB [19] is 4 relative luminescence units; with Jo-1 [20], 2 relative luminescence units; in the assay with Scl-70 [21], 1 relative luminescence units.

B2: CH557 (antibody, V domains shown)
VH: QVRLAQYGGGVKRLGATMTLSCVASGYTFNDYYIHWVRQAPGQGFELLGYIDPANGRPDYAGALRERLSFYRDKSMETLYMDLRSLRYDDTAMYYCVRNVGTAGSLLHYDHWGSGSPVIVSS
VL: EIVLTQSPATLSASPGERVTLTCRASRSVRNNVAWYQHKGGQSPRLLIYDASTRAAGVPARFSGSASGTEFTLAISNLESEDFTVYFCLQYNNWWTFGQGTRVDIK
notes: also called CH235.12; CH557_4A/293i
For B2, the figures for the AtheNA signal in the assay with SSB [22] and with Scl-70 [23] were 12 relative luminescence units and 4 relative luminescence units, respectively.

B3: CH235 (antibody, V domains shown)
VH: QVQLVQSGAEVKKPGASVTVSCQASGYTFTNYYVHWVRQAPGQGLQLMGWIDPSWGRTNYAQNFQGRITMTRDTSTSTVYMEMRSLRSEDTAVYYCARNVATEGSLLHYDYWGQGTLVTVSA
VL: EIVLTQSPATLSVSPGERATLSCRASQSVRSNLAWYQQRPGQAPRLLIYGTSTRATGVPARFSGRGSGTEFTLAISSMQSEDFAVYLCLQYNNWWTFGQGTKVEIK
notes: also called CH235_4A
For the molecule B3, the AtheNA signal is 5 relative luminescence units with RNP (ribonucleoprotein) [1]; 7 relative luminescence units with Histones [2]; 13 relative luminescence units in the assay with SSA [3]; 7 relative luminescence units with Sm (Smith antigen) [4]; 5 relative luminescence units with SSB [5]; 4 relative luminescence units with Jo-1 [6]. Moreover, the AtheNA signal with Scl-70 [7] was 4 relative luminescence units; with RNP (ribonucleoprotein) [8], 6 relative luminescence units; with Histones [9] it was 5 relative luminescence units; in the assay with SSA [10], 13 relative luminescence units; in the assay with Sm (Smith antigen) [11], 8 relative luminescence units; in the assay with SSB [12] it was 5 relative luminescence units. In addition, the AtheNA signal is 3 relative luminescence units with Jo-1 [13]; 2 relative luminescence units in the assay with Scl-70 [14]; 3 relative luminescence units in the assay with RNP (ribonucleoprotein) [15]; 5 relative luminescence units with Histones [16]; 12 relative luminescence units in the assay with SSA [17]; 5 relative luminescence units with Sm (Smith antigen) [18]. In addition, the AtheNA signal in the assay with SSB [19] was 6 relative luminescence units; with Jo-1 [20] it was 2 relative luminescence units; with Scl-70 [21] it was 2 relative luminescence units.
